In article PMC7429481, “Signalling, trafficking and glucoregulatory properties of glucagon‐like peptide‐1 receptor agonists exendin‐4 and lixisenatide” (British Journal of Pharmacology, 2020):

Molecular target: human SNAP‐GLP‐1 receptor (HEK293‐SNAP‐GLP‐1 receptor cells) (human) (UniProt P43220)
Assay: FRET or BRET

Chain of human SNAP‐GLP‐1 receptor (HEK293‐SNAP‐GLP‐1 receptor cells) (human) (P43220 24-463): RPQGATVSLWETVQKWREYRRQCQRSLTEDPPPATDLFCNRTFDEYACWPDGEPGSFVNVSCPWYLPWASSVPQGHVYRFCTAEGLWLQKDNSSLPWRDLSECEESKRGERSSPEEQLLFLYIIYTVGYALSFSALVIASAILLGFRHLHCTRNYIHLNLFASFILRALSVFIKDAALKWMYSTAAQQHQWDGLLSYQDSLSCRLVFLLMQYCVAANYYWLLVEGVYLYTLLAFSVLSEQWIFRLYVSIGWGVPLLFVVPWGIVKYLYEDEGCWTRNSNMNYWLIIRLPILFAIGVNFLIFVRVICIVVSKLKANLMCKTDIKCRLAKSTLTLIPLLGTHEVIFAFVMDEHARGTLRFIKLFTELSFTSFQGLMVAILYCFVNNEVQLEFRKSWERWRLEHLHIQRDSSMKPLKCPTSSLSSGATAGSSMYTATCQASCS

Substance | log KD
exendin‐4 (from UniProt P26349 48-87) (peptide) | -9.2
lixisenatide (peptide) | -9
